Test results published in the supplement of paper PMC9170038.

System: MS2 coat protein
Experiment: apparent KD of MS2 coat protein; designed switch direction (-1 OFF switch, 1 ON switch): -1; higher = weaker reporter binding
Summary of the method: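 The buffer was Tris-HCl pH 7.5 with KCl, MgCl2, BSA, DTT, tRNA and Tween-20. In it, SNAP-549-labelled MS2 coat protein was titrated in doubling steps from 0.7 or 1.5 nM to 3 µM over chip-bound RNA switches transcribed by stalled E. coli RNA polymerase on Illumina chips. Apparent KD is the per-design median over clusters of curve fits to normalised fluorescence.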

[1] = input ligand: microRNA oligo, concentration not stated
[2] = Eterna round: R95, input ligand: microRNA oligo, concentration not stated
[3] = Eterna round: R95, input ligand: FMN 200 uM
[4] = Eterna round: R95, input ligand: none

Sequence	apparent KD of MS2 coat protein (input ligand: FMN 200 uM) [nM]	apparent KD of MS2 coat protein [1] [nM]	apparent KD of MS2 coat protein (input ligand: none) [nM]	apparent KD of MS2 coat protein [2] [nM]	apparent KD of MS2 coat protein [3] [nM]	apparent KD of MS2 coat protein [4] [nM]
AACCUUUAGUUAGGAUAUCGCAUCACCGUCAAGUGAGAAGGGACAUGAGGAUCACCCAUGUCUUCCGUGGGCUACACUGCUUCU [Eternabot solution 5] (Eterna round: R96, puzzle: Exclusion NG 1)	19	19.4	27.4			
CAUGAUUGGCGAGGAUAUUGAUCUAGUUGGCGACGAGAAGGCGCCUGUCACAUGAGGAUCACCCAUGUGAGUCUGGUGGAUGAG [Ex NG1 #87] (Eterna round: R96, puzzle: Exclusion NG 1)	21.4	16.5	20.4			
CUGAUGUUAGGAUAUCAGGCGCCCGCCACUGGCAAGGCGCAUGAGAAGGGACAUGAGGAUCACCCAUGUAGUAA [Maquraan] (puzzle: Exclusion 4)				21.5		
GUCAGCUCGUGAGGAUAUACAUGCGUGCUUCGGCACGUAUGAUAGAUCACAUGAGGAUCACCCAUGUAGAAGGUACGAGCUGAU [ENG2/4-C2] (Eterna round: R96, puzzle: Exclusion NG 2)	14.9	10.8	15.2			
AAUCGAUCGCCGUACGCACACAUGAGGAUCACCCAUGUAGCUGAGGAUAUCCACCCAUAACGGUCGGAGAAGGCGGGACUGGGA [Eraananbi] (Eterna round: R96, puzzle: Exclusion NG 3)	30.8	11.3	19.1			
GGUGGACAUGAGGAUCACCCAUGUGAGGAUAUCGGCUGGCUAGCGGCUGACGGCUGCUCGAGAAGGCGCAUUGU [Exclusion 1 V85] (puzzle: Exclusion 1)				50.5		
CAAGUGUUAGGAUAUACCAGUUAAAUGCAGCUGCCGUCGGAGUAGAAGGGACAUGAGGAUCACCCAUGUCGGGA [Eternabot (L1) Solution 28] (Eterna round: R97, puzzle: Exclusion 4)	46.1		35.1			
AAACGGCGGAUCGUGGCUUUUUGCUCGUCUUGUGCUUCGACAUGAGGAUCACCCAUGUGGUGGUGAUCCGUUGUAAA [Grok-var2-16 mod JAL] (puzzle: Sensor v3, turn-off variant 2)				15.8	58.6	83.5
GCAAGCUUUUAGAUUUUCAACAUGAGGAUCACCCAUGUUCGUCUUGUGCUCGGGCUUGGGCGGUGUCCGGGUUUGGG [JL TOV1 3.76 sellena mod] (Eterna round: R97, puzzle: Sensor, turn-off variant 1)	36.2		38.3			
CCGAAAAGGAAGGAUAUGCUAGACGAAAGUCUAGCAGAAGGUCCUACAUGAGGAUCACCCAUGUGGUCCUUCGG [Mat - Exclusion 6 - Eli Mod - D35] (Eterna round: R97, puzzle: Exclusion 6)	1730		448			
GGGAAGGGAGGAUAUGAGGGAGAGAACAUGAGGAUCACCCAUGUGAGACCUCAGGAUCGAUCAGAAGGCCCGAUCC [AK-MS2ROC-r4-exclusion5-14] (Eterna round: R97, puzzle: Exclusion 5)	677		383			
CUUUUGUGAGGAUAUCAGUAGUAAAAAAAUAAAAUUAUUACUGAGAAGGCACAUGAGGAUCACCCAUGUUCCUC [salish99_ex4_r3_028] (puzzle: Exclusion 4)				36.3		
AUAAGCUUUGAGAUCCUUAACAUGAGGAUCACCCAUGUUCGUCUUAUGAUGGUCUGAUCCCUGAGGAUCGGACCGUA [Mat - Sensor v3 - turn-off var 1 - JL Mod - D1] (puzzle: Sensor v3, turn-off variant 1)				28.4	146	186
CCUCCCUGAGGAUAUCCACCCUCAUACAUGAGGAUCACCCAUGUUCAACCCUGGGUUCCCGGAGAAGGCAGUUUCC [Megrez-2.4] (Eterna round: R97, puzzle: Exclusion 5)	226		235			
GCACGAAGUGUAGGAUAUCUGUGCGAUUAGCUCAGAGAAGGACACAUGAGGAUCACCCAUGUGUUCCAGCGAAAGCAAACGUGC [Eli exng1 - 055] (Eterna round: R96, puzzle: Exclusion NG 1)	9.68	7.78	12.9			
UAUUAGCAAGUGAGAUCCGACAUGAGGAUCACCCAUGUGCUCGUCUUAUAAGGUAAUAUAAGAAAACUUAUAUUACC [Elimod 6 - Jieux - Sensor, turn-off variant 1] (Eterna round: R97, puzzle: Sensor, turn-off variant 1)	207		233			
UGAGUGCUGCGAGGAUAUACAUGAGGAUCACCCAUGUGGUCCUGUGAGGCAAAGCCUCACAGGAUGUAGAAGGCGCAGUACUCU [Mat - Exclusion NG 2 - Mod of JL - D45] (Eterna round: R96, puzzle: Exclusion NG 2)	95.2	13.7	22.5			
AGUUGGCGAGGAUAUACAUGAGGAUCACCCAUGUAAGAGAUACGAGUAAGGUAAAUAUGUAGAAGGCGCUGACA [JR_Ex3_Sub076] (Eterna round: R97, puzzle: Exclusion 3)	251		26.9			
GAAAACGCAGGAUAUUAAUACUUAUACAUGAGGAUCACCCAUGUUUAUUGGGAUUAAGAAUAAGAAGGGCGAUGAA [EX5 #1] (Eterna round: R97, puzzle: Exclusion 5)	30.8		24			
GGAUCACGAGGAUAUCGAUUUUAGUACAUGAGGAUCACCCAUGUUGUCCAGGUCUCGAUUCGAGAAGGCGUGAUUC [LRO-Ex5-05] (puzzle: Exclusion 5)				34.5		
CGUGACUCAGGAUAUCUAUAGUAUCACAUGAGGAUCACCCAUGUCCAGCGAAAGCUGGAGGGAGAAGGGAGUCACG [Fiskers Ex 5 - 42] (Eterna round: R96, puzzle: Exclusion 5)	74.1	230	188			
GAGAGAAUCUAGGAUAUAUCAAGAGAAGGAGAGAUAGAAGGAGAGACAUGAGGAUCACCCAUGUCUUCGUGUAG [Default title] (Eterna round: R97, puzzle: Exclusion 6)	16.6		15.8			
GUGAUCUAUCAUGUAAUGAACAUGAGGAUCACCCAUGUAGGCAGGUUUUUUGCUCGUCACAUAAUAAGAUAGAUCAC [Antenna 20 - Jieux - Sensor, turn-off variant 1] (Eterna round: R97, puzzle: Sensor, turn-off variant 1)	18.6		24.2			
AAAAUAAACCUCAUUUAAAACAUGAGGAUCACCCAUGUAAAAUGCUCGUCUUAUUAAAUGUACUCCUAGUUCGUACA [My solution] (Eterna round: R97, puzzle: Sensor, turn-off variant 1)	178		251			
GCUGGAAGAGGAUAUACAUAAGGUGCGUCAGCACCGGGCCUACAUGAGGAUCACCCAUGUAGAAGGCUUCCAGC [EX2 #78] (Eterna round: R97, puzzle: Exclusion 2)	55.1		15.2			
